Where no end group is shown, it is not given here. The star is where a group is joined. Biotin = O=C1N[C@H]2[C@H](CS[C@H]2CCCCC(=O)*)N1; AEEA = NCCOCCOCC(=O)O
Legend:
Pertussis toxin (PT) [1] = target: T1, Pertussis toxin (PT) (Bordetella pertussis, UniProt P04977 35-269; P04978 28-226; P04979 29-227; P0A3R5 43-152; P04981 35-133); experiment: 35S-labelled, His-tag purified free peptide (TNT expressed) on biotinylated PT on streptavidin magnetic beads, scintillation counting (test 1)
T1 construct: mature; also called purified PT; biotinylated PT
Protocol: (§1) By this measure, those bated with biotinylated PT immobilized on streptavidin-magnetic beads for 1 h at RT. The beads were washed 3× with HBS-buffer and then resuspended in water and analyzed by liquid scintillation counting. In control experiments each candidate was incubated with streptavidin beads only (without PT).

Pertussis toxin (PT) [2] = target: T1, Pertussis toxin (PT); experiment: as above; remark: listed apart in the source
Protocol: as §1

Pertussis toxin (PT) [3] = target: T1, Pertussis toxin (PT); experiment: 20 pmol sepharose-immobilized peptide with 100 pmol (500 nM) PT, bound PT quantified by gel, 1:1 ratio assumed
Pertussis toxin (PT) [4] = target: T1, Pertussis toxin (PT); experiment: ~200 pmol peptide on streptavidin sepharose with 100 pmol purified PT, gel and silver staining
Pertussis toxin (PT) [5] = target: T1, Pertussis toxin (PT); experiment: BIAcore 2000, 2.5-100 nM peptide over PT amine coupled to a CM5 chip (6000 RU), HBS/EP, room temperature

Row | Binder | binding result (Pertussis toxin (PT) [2]) | Fraction of binding active peptide (Pertussis toxin (PT) [3]) | also measured
1 | MGRGSHHHHHHARSWQPEVKMSSLVDTSQTVGAAVETRTTDANAPKASA [PP26 variant # 14 (seq # 197825)] |  |  | binding result (Pertussis toxin (PT) [1]): binds
2 | gurmarin variant # 15 (seq # 194511) (peptide) MHHHHHHSGSSSGSGCVKKDELCSQSVPMCCEPLECKWFNENYGICGSGSSGSS | binds |  | 
3 | {Biotin-AEEA}-RSWRDTRKLHMRHYFPLAIDSYWDHTLRDA (also called pp26 peptide 15; pp26 clone 15) [synthetic biotinylated peptide pp26 15 n (Seq # 198000-1)] |  | > 12.5% | 
4 | {Biotin-AEEA}-SGCVKKDELCELAVDECCEPLECFQMGHGFKRCG (ends and bridges not checked, also called gurm 10n) [synthetic biotinylated peptide gurmarin 10 n (Seq # 194264-1)] |  | > 5% | 
5 | MGRGSHHHHHHARSTMNTNRMDIQRLMTNHVKRDSSPGSIDANAPKASAI [PP26 variant # 6 (seq # 197596)] |  |  | binding result (Pertussis toxin (PT) [1]): binds
6 | gurmarin variant # 14 (seq # 194479) (peptide) MHHHHHHSGSSSGSGCVKKDELCTTASKSCCEPLECKWTNEHFGTCGSGSSGSS | binds |  | 
7 | RSSHCRHRNCHTITRGNMRIETPNNIRKDAK(Biotin) (cysteine pairing not given here) [synthetic biotinylated peptide pp26 5 c (Seq # 197557-1)] |  |  | binding result (Pertussis toxin (PT) [4]): binds
8 | {Biotin-AEEA}-RSSHCRHRNCHTITRGNMRIETPNNIRKDA (cysteine pairing not given here) [synthetic biotinylated peptide pp26 5 n (Seq # 197557-2)] |  | > 5% | 
9 | gurmarin variant # 9 (seq # 194259) (peptide) MHHHHHHSGSSSGSGCVKKDELCARWDLVCCEPLECIYTSELYATCGSGSSGSS | binds |  | 
10 | gurmarin variant # 16 (seq # 194533) (peptide) MHHHHHHSGSSSGSGCVKKDELCARWDLVCCEPLECIYTSELYATCGSGSSGSS | binds |  | 
11 | {Biotin-AEEA}-SGCVKKDELCARWDLVCCEPLECIYTSELYATCG (cysteine pairing not given here, also called gurm 9n; gurmarin peptide 9) [synthetic biotinylated peptide gurmarin 9 n (Seq # 194259-1)] |  | > 12.5% | 
12 | gurmarin variant # 10 (seq # 194264) (peptide) MHHHHHHSGSSSGSGCVKKDELCELAVDECCEPLECFQMGHGFKRCGSGSSGSS | binds |  | 
13 | MGRGSHHHHHHARSWRDTRKLHMRHYFPLAIDSYWDHTLRDANAPKASAI [PP26 variant # 15 (seq # 198000)] |  |  | binding result (Pertussis toxin (PT) [1]): binds
14 | {Biotin-AEEA}-SGCVKKDELCELAIDECCEPLECTKGDLGFRKCG (ends and bridges not checked, also called gurm 19n) [synthetic biotinylated peptide gurmarin 19 n (Seq # 194737-1)] |  | > 5% | 
15 | gurmarin variant # 12 (seq # 194297) (peptide) MHHHHHHSGSSSGSGCVKKDELCVFYFPNCCEPLECRWVNDNYGWCGSGSSGSS | binds |  | 
16 | {Biotin-AEEA}-SGCVKKDELCSQSVPMCCEPLECKWFNENYGICGS (ends and bridges not checked, also called gurm 15n; gurmarin peptide 15) [synthetic biotinylated peptide gurmarin 15 n (Seq # 194511-1)] |  | > 50% | 
17 | {Biotin-AEEA}-RSNVIPLNEVWYDTGWDRPHRSRLSIDDDA (also called pp26 peptide 9; pp26 clone 9) [synthetic biotinylated peptide pp26 9 n (Seq # 197588-1)] |  | > 50% | Kd (Pertussis toxin (PT) [5]): 7.5 nM; koff (Pertussis toxin (PT) [5]): 0.001 s⁻¹; kon (Pertussis toxin (PT) [5]): 130000 M⁻¹ s⁻¹
18 | MGRGSHHHHHHARSSHCRHRNCHTITRGNMRIETPNNIRKDANAPKASAI [PP26 variant # 5 (seq # 197557)] |  |  | binding result (Pertussis toxin (PT) [1]): binds
19 | gurmarin variant # 11 (seq # 194328) (peptide) MHHHHHHSGSSSGSGCVKKDELCNWVTPMRCEPLECLGHGLGYAYCGSGSSGSS | binds |  | 

— patent US8299210 (Sanofi, dated 2012)
